From patent publication US20220119467A1
No end group written: not given here.

T1: YFP-degronSwitcha
T1 sequence: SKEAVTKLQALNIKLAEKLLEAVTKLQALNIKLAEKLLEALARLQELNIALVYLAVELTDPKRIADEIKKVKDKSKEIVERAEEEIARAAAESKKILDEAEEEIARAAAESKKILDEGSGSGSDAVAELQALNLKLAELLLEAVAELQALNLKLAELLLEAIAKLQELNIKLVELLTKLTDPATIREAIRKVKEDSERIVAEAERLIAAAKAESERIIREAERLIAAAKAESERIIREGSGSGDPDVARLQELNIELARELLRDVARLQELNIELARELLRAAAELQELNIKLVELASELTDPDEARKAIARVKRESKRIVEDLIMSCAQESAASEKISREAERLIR

T2: dCas9-VP64-RFP-degronSwitcha
T2 sequence: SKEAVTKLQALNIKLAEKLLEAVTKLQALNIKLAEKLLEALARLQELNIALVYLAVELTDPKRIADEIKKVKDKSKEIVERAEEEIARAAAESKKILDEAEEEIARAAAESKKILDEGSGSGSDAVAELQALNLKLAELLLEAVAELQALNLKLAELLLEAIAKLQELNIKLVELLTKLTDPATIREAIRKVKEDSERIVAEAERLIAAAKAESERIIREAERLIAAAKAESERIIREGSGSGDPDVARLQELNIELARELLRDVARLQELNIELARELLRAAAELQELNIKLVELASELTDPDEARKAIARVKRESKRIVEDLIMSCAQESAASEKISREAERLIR


How the values were obtained:
Experiment in all cases: cell-based or functional assay
YFP-degronSwitcha = target: T1, YFP-degronSwitcha
[1] = target: T2, dCas9-VP64-RFP-degronSwitcha
SynTF-RFP-degronSwitcha = target: SynTF-RFP-degronSwitcha

Binder	YFP fluorescence at steady state, flow cytometry, S. cerevisiae (YFP-degronSwitcha) [%]	decrease in RFP fluorescence at 31.25 nM E2, flow cytometry, S. cerevisiae [1] [%]	decrease in pTet7x-YFP reporter fluorescence at 31.25 nM E2, flow cytometry, S. cerevisiae [1] [%]	decrease in RFP fluorescence at 31.25 nM E2, flow cytometry, S. cerevisiae (SynTF-RFP-degronSwitcha) [%]	decrease in pSynTF-YFP reporter fluorescence at 31.25 nM E2, flow cytometry, S. cerevisiae (SynTF-RFP-degronSwitcha) [%]
Keya-BFP (designed binder, not shown: large carriers, not fully specified (C-terminus); also: linker to BFP not given here) EARKAIARVKRESKRIVEDAERLIREAAAASEKISREAERLIREAAAASEKISRE	< 73	78	41		
keya-BFP-NLS (designed binder, not shown: large carriers, not fully specified (C-terminus); also: BFP and NLS sequences not given here) EARKAIARVKRESKRIVEDAERLIREAAAASEKISREAERLIREAAAASEKISRE				61	82
